Test results: the RNAGym collection of RNA variant scans (doi:10.7554/elife.90254)

B1: OR4K15 (parent)
chain: GUUAACGGUCAUAGGCCAUGGAAACUAGGAGCACCAUUUCGCUGCCAGUGAAGAAAUGAACAAAGAAAAUCUGGGCCAGGCAGGCAUCAAAAGAAAUAGUCUUGCGCUCAACCAGAAAGUCUGUAAUCAUUUUAAGGGUA

Variants of: B1
Assay: self-cleavage, relative activity (ratio to wild type); higher = more cleavage; in vitro, sequencing; the parent is a self-cleaving ribozyme

Variant | self-cleavage
GUUAACGGUCAUAGGCCAUGGAAACUAGGAGCACCAUUUCGCUGCCAGUGAAGAAAUGAACAAAGAAAAUCUGGGCCAGGCAGGCAUCAAAAGAAAUAGUCAUGCGCUCAACCAGAAAGUCUGUAAUCAUUUUAAGGAUA [U102A G138A] | 0.55
GUUAACGGUCAUAGGCCAUGGAAACUAGGAGCACCAUUUCGCUGCCAGUGAAGAAAUGAACAAAGAAAAUCUGGGCCAGGCAGGCAUCAAAAGAAAUAGUCUUGCGCUUAACCGGAAAGUCUGUAAUCAUUUUAAGGGUA [C109U A114G] | 0.2
GUUAAUGGUCAUAGGCCAUGGAAACUAGGAGCACCAUUUCGCUGCCAGUGAAGAAAUGAACAAAGAAAAUCUGGGCCAUGCAGGCAUCAAAAGAAAUAGUCUUGCGCUCAACCAGAAAGUCUGUAAUCAUUUUAAGGGUA [C6U G79U] | 0.11
GUUGACGGUCAUAGCCCAUGGAAACUAGGAGCACCAUUUCGCUGCCAGUGAAGAAAUGAACAAAGAAAAUCUGGGCCAGGCAGGCAUCAAAAGAAAUAGUCUUGCGCUCAACCAGAAAGUCUGUAAUCAUUUUAAGGGUA [A4G G15C] | 1.28
GUUAACGGUCAUAGGCCAUGGAAACUAGGAGCACCAUUUCGCUGCCAGUGAAGAAAUGAACAAAGAAAAUCUAGGCCAGGCGGGCAUCAAAAGAAAUAGUCUUGCGCUCAACCAGAAAGUCUGUAAUCAUUUUAAGGGUA [G73A A82G] | 0.22
GUUAACGGUCAUAGGCCGUGGAAACUAGGAGCACCAUUUCGCUGCCAGUGAAGGAAUGAACAAAGAAAAUCUGGGCCAGGCAGGCAUCAAAAGAAAUAGUCUUGCGCUCAACCAGAAAGUCUGUAAUCAUUUUAAGGGUA [A18G A54G] | 0.96
GUUACCGGUCAUAGGCCAUGGAAACUAGGAGCACCAUUUCGCUGCCAGUGAAGAAAUGAACAAAGAAAAUCUGGGCCAGGCAGGCAUCAAAAGAAAUAGUCUUGCGCUCAACCAGAAAGUCUGUAAUCAUUUUAAGGGUA [A5C] | 1.21
GUUAACGGUCAUAGGCCACGGAAACUAGGAGCACCAUUUCGCUGCCAGUGAAGAAAUGAACAAAGAAAAUCUGGGCCAGGCAAGCAUCAAAAGAAAUAGUCUUGCGCUCAACCAGAAAGUCUGUAAUCAUUUUAAGGGUA [U19C G83A] | 1.68
GUUAACGGUCAUAGGCCAUGGAAACUAGGAGCACCAUUUCGCUGCCAGUGAAGAAAUGAACAAAGAAAAUCUGGGCCAGGCAGGCAUCAAAAGAAAUAGUCUUGCGCUCCACCAGGAAGUCUGUAAUCAUUUUAAGGGUA [A110C A116G] | 0.26
GGUAACGGUCUUAGGCCAUGGAAACUAGGAGCACCAUUUCGCUGCCAGUGAAGAAAUGAACAAAGAAAAUCUGGGCCAGGCAGGCAUCAAAAGAAAUAGUCUUGCGCUCAACCAGAAAGUCUGUAAUCAUUUUAAGGGUA [U2G A11U] | 1.51
GUUAACGGUCAUAGGCCAUGGAAACUAGGAGCACCAUUUCGCUGCCAGUGAAGAAAUGAACAAAGAAAAUCUGGGCCAGGCAGGCAUCAAAAGAAACAGUCUUGCGCUCAACCAGAAAGUCUGUAAUCAUUUUGAGGGUA [U97C A134G] | 1.02
GUUAACGGUCAUAGGCCAUGGAAACUAGGAGCACCAUUUCGCUGCCAGUGUAGAAAUGAACAAAGAAAAUCUGGGCCAGGCAGGCAUCAAAAGAAAUAGUCUUGCGCUCAACCAGAAAGUCUGUAAUCAAUUUAAGGGUA [A51U U130A] | 1.4
GUUAACGGUCAUAGGCCAUGGAAACUAGGAGCACCAUUUCGCUGCCAGAGAAGAAAUGAACAAAGAAAAUCUGGGCCAAGCAGGCAUCAAAAGAAAUAGUCUUGCGCUCAACCAGAAAGUCUGUAAUCAUUUUAAGGGUA [U49A G79A] | 0.12
GUUAACGGUCAUAAGCCAUGGAAACUAGGAGCGCCAUUUCGCUGCCAGUGAAGAAAUGAACAAAGAAAAUCUGGGCCAGGCAGGCAUCAAAAGAAAUAGUCUUGCGCUCAACCAGAAAGUCUGUAAUCAUUUUAAGGGUA [G14A A33G] | 0.87
GUUAACGGUCAUAGGCCAUGGAAACUAGGAGCACCAUUUCGCUGCCAGUGAAGAAAUGAACAAAGAAAAUCUGGGCCAGGCAGGCAUCAAAAGAAAUAGUCUUACGCUCAACCAGAAAGUCUGUAAUCAUUUUAAGGGUA [G104A] | 0.04
GUUAACGGUCAUAGGCCAUGGAAACUAGGGGCACCAUUUCGCUGUCAGUGAAGAAAUGAACAAAGAAAAUCUGGGCCAGGCAGGCAUCAAAAGAAAUAGUCUUGCGCUCAACCAGAAAGUCUGUAAUCAUUUUAAGGGUA [A30G C45U] | 1.06
GUUAACGGUCAUAGGCCAUGGAAACUAGGAGCACCAUUUCGCUGCCAGUGAAGAAAUGAACAAAGAAAAUCUGGGCCAGGCAGGCAUCAAAAGAAAUAGUCUUGCGCUCCACCAGAGAGUCUGUAAUCAUUUUAAGGGUA [A110C A117G] | 0.64
GUUGACGGUCAUAGGCCAUGGAAACUAGGAGCACCAUUUCGCUGCCAGUGAAGAAAUGAACAAAGAAAAUCUGGGCCAGGCAGGCAUCAAAAGAAAUAGUCUUGCACUCAACCAGAAAGUCUGUAAUCAUUUUAAGGGUA [A4G G106A] | 0.02
GUUAACGGUCAUAGGCCAUGGAAACUAGGAGCACCAUUUCGCUGCCAGUGAAGAAAUGAACAAUGAGAAUCUGGGCCAGGCAGGCAUCAAAAGAAAUAGUCUUGCGCUCAACCAGAAAGUCUGUAAUCAUUUUAAGGGUA [A64U A67G] | 1.32
GUUAACGGUCAUAGGCCAUGGAAACUAGGAGCACCAUUUCGCUGCCAGUGAAGAAAUGAACAAAGAAAAUCUGGGCCAGGCAGGCACCAAAAGAAAUAGUCUUGCGCUCAACCAGAAGGUCUGUAAUCAUUUUAAGGGUA [U87C A118G] | 0.75
GUUAACAGUCAUAGGCCAUGGAAACUAGGAGCACCAUUUCGCUGCCAGUGAAGAAAUGAACAAAGAAAAUCUGGGCCAGGCAGGCAUCAAAAGAAAUAGUCUUGCGCUCAGCCAGAAAGUCUGUAAUCAUUUUAAGGGUA [G7A A111G] | 0.03

Variant | self-cleavage
GUCAACGGUCAUAGGCCAUGGAAACUAGGAGCACCAUUUCGCUGCCAGUGGAGAAAUGAACAAAGAAAAUCUGGGCCAGGCAGGCAUCAAAAGAAAUAGUCUUGCGCUCAACCAGAAAGUCUGUAAUCAUUUUAAGGGUA [U3C A51G] | 1.12
GUUAACGGUCAUAGGCCAUGGAAACUAGGAGCAACAUUUCGCUGCCAGUGAAGAAAUGAACAAAGAAAAUCUGGGCCAGGCAGGCAUCGAAAGAAAUAGUCUUGCGCUCAACCAGAAAGUCUGUAAUCAUUUUAAGGGUA [C34A A89G] | 1.66
GUUAACGGUCAUAGGCCAUGGGAACUAGGAGCACCAUUUCGCUGCCAGUGAAGAAAUGAACAAAGAAAAUCUGGGCCAGGCAGGCAUCAAAAGAAAUAGUCUUGCGCUCAUCCAGAAAGUCUGUAAUCAUUUUAAGGGUA [A22G A111U] | 0.04
GUUAACGGCCAUAGGCCAUGGAAACUAGGAGCACCAUUUCGCUGCCAGUGAAGAAAUGAACAAAGAAAAUCUGGGCCAGGCAGGCAUCAAAAGAAAUAGUCUAGCGCUCAACCAGAAAGUCUGUAAUCAUUUUAAGGGUA [U9C U103A] | 1.9
GUUAACGGUCAUAGGCCAUGGAAACUAGGAGCACCAUUUCGCUGCCAGUGAAGAAAUGAACAAAGAAAAUCUGGGCCAGGCAAGCUUCAAAAGAAAUAGUCUUGCGCUCAACCAGAAAGUCUGUAAUCAUUUUAAGGGUA [G83A A86U] | 2.81
GUUAACUGUCAUAGGCCAUGGAAACUAGGAGCACCAUUUCGCUGCCAGUGAAGAAAUGAACAAAGAAAAUCUGGGCCAGGCAGGCAUCAAAAGAAAUAGUCUUGCGCUCAACCAGUAAGUCUGUAAUCAUUUUAAGGGUA [G7U A116U] | 0.38
GUUAACGGUCAUAGGCCAUGGAAACUAGGAGCACCAUUUCGCUGCCAGUGAAGAAAUGAACAAAGGAAAUCUGGGCCAGGCAUGCAUCAAAAGAAAUAGUCUUGCGCUCAACCAGAAAGUCUGUAAUCAUUUUAAGGGUA [A66G G83U] | 0.61
GUUAACGGUCAUAGGCCAUGGAAACUAGGAGCACCAUUUCGCUGCCAGUGGAGAAAUGAACAAAGAAAAUCUGGGCCAGGCAGGCAGCAAAAGAAAUAGUCUUGCGCUCAACCAGAAAGUCUGUAAUCAUUUUAAGGGUA [A51G U87G] | 0.43
GUUAACGGUCAUAGGCCAUGGAAACUAGGGGCACCAUUUCGCUGCCAGUGAAGAAAUGAACAAAGAAAAUCUGGGCCGGGCAGGCAUCAAAAGAAAUAGUCUUGCGCUCAACCAGAAAGUCUGUAAUCAUUUUAAGGGUA [A30G A78G] | 0.11
GUUAACGGUCAUAGGCCAUGGAAACUAGGAGCACCAUUUCGCUGCCAGUGAAGAGAUGAACAAAGAAAAUCUGGGCCAGGCAGGCAUCAAAAGAAAUAGUCUUGCGCUCAACCAAAAAGUCUGUAAUCAUUUUAAGGGUA [A55G G115A] | 0.14
GUUAACGGUCAUAGGCCAUGGAAACUAGGAGCACCAUUUCGCUGCCAGUGAAGAAAUGAACAAAGAAAAUCUGGGCCAGGCAGGCAUCAAAAGAAAUAGUCUUGCGCUCAGCCAGAAAGUCUGUAACCAUUUUAAGGGUA [A111G U127C] | 0.01
GUUAACGGUCAUAGGCCAUGGAAACUAGGAGCACCAUUUCGCUGCCGGUGAAGAAAUGAACAAAGAAAAUCUGGGCCAGGCAGGCAUCAAAAGGAAUAGUCUUGCGCUCAACCAGAAAGUCUGUAAUCAUUUUAAGGGUA [A47G A94G] | 0.82
GUUAACGGUCAUAGGCCAUGGAAACUAGGAGCACCAUUUCGCGGCCAGUGAAGAAAUGAACAAAGAAAAUCUGGGCCAGGCAGGCAUCAAAAGAAAUAGUCUUGCGCUCAACCAGAAAGUCUGUAAUCAUUUUGAGGGUA [U43G A134G] | 0.89
GUUAACGGUCAUAGGCCUUGGAAACUAGGAGCACCAUUUCGCUGCCAGUGAAGAAAUGAACAAAGAAAAUCUGGGCCAGGCAGGCAUCAAAAGAAAUAGUCUUGUGCUCAACCAGAAAGUCUGUAAUCAUUUUAAGGGUA [A18U C105U] | 0.28
GUUAACGGUCCUAGGCCAUGGAAACUAGGAGCACCAUUUCGCUGCCAGUGAAGAAAUGAACAAAGAAAGUCUGGGCCAGGCAGGCAUCAAAAGAAAUAGUCUUGCGCUCAACCAGAAAGUCUGUAAUCAUUUUAAGGGUA [A11C A69G] | 1.7
GUUAACGGUCAUAGGCCAUGGAAACUAGGAGCACCAUUUCGCUGCCAGUGAAGAAAUGAACAAAGAAAAUCUGGGCCAGGCAGGCAUCAAAAGAAAUAGUCCUGCGCUCAACCAGAAAGUCUGUAAUCACUUUAAGGGUA [U102C U130C] | 1.64
GUUAACGGUCAUAGGCCAUGGAAACUAGGAGCACCAUUUCGCUGCCAGUGAAGAAAUGAACAAAGAAAAUCUGGGCCAGGCAGGCAUCAAAAGAAACAGUCUUGCGCUCAACCAGAAAGUCUGUAACCAUUUUAAGGGUA [U97C U127C] | 1.25
GUUAACGGUCAUAGGCCAUGGAAACUAGGAGCACCAUUUCGCUGCCAGUGAAGAAUUGAACAAAGAAAAUCUGGGCCAGGCAGGCAUCAAAAGAAAUAGUCUUGCGCUCUACCAGAAAGUCUGUAAUCAUUUUAAGGGUA [A56U A110U] | 1
GUCAACGGUCAUAGGCCAUGGAAACUAGGAGCACCAUUUCGCUGCCAGUGAAGAAAUGAACAAAGAAAAUCUGGGCCAGGCAGGCAUCAAAAGAAAUAGUCUUGCGCUCAACCGGAAAGUCUGUAAUCAUUUUAAGGGUA [U3C A114G] | 0.47
GUUAACGGUCAUAGGCCAUGGAAACUAGGAGCACCAUUUCGCUGCCAGUGAAGAAAUGAACAAAGAAAAUCUGGGCCAGGCAGGCAUCAAAAGAAACAGUCUUGCGCUCAACCAGAAAGUCUGUAAUCAUUUCAAGGGUA [U97C U133C] | 1.53
